Results: the RNAGym collection of RNA variant scans (doi:10.1073/pnas.2313332121)

B1: TPR t1 (parent)
chain: GACCAAUCUGCCCUCAGAGCUCGAGAACAUCUUCGGAUGCAGAGGAGGCAGGCUUCGGUGGCGCGAUAGCGCCAACGUCCUCAACCUCCAAUGCAUCCCACCACAUGAUGAUGCCUGAAGAGCCUUGGUUUUUUG

Variants of: B1
Assay: polymerase ribozyme fitness, log enrichment relative to wild type (log ratio); higher = more active; in vitro selection for triplet polymerase activity
In short: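 One round of in vitro selection, in triplicate, was applied to PCR-built, transcribed mutant libraries of each subunit of a heterodimeric triplet polymerase ribozyme. The steps were annealing with a biotinylated primer, partner subunit and triplets, incubation frozen at −7 °C, gel excision of extended constructs, streptavidin-bead capture and RT-PCR. Fitness is the logarithm, base 2, of genotype enrichment over wild-type enrichment from inverse-variance-weighted replicate averages of Illumina-sequenced inputs and outputs, keeping genotypes with ≥10 input reads and ≥1 read per output.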
With G10A U38C G45A C79U the “polymerase ribozyme fitness (log ratio)” value was -1.29. For G10C C62A U78C, the “polymerase ribozyme fitness (log ratio)” value was -1.58. With G10A C86U U112A the “polymerase ribozyme fitness (log ratio)” value was 1.32. For G10A U59C G61A A83G C114G C115U, the “polymerase ribozyme fitness (log ratio)” value was -7.23. In the case of G10C G110U, the “polymerase ribozyme fitness (log ratio)” value is reported as -2.66. For G10C U87C, the “polymerase ribozyme fitness (log ratio)” value was -1.18. In the case of G10C G17U G63A, the “polymerase ribozyme fitness (log ratio)” value is reported as -4.45. With G10C U32C G113U the “polymerase ribozyme fitness (log ratio)” value was -3.81. With G10A G44U U92G C115A the “polymerase ribozyme fitness (log ratio)” value was -3.73. In the case of G10A G17A U106A, the “polymerase ribozyme fitness (log ratio)” value is reported as -3.51. With G10C C49A G71U the “polymerase ribozyme fitness (log ratio)” value was -1.17. In the case of G10A G42A, the “polymerase ribozyme fitness (log ratio)” value is reported as -1.32. For G10C A66G A83U, the “polymerase ribozyme fitness (log ratio)” value was -1.48. With G10A G17A C82A the “polymerase ribozyme fitness (log ratio)” value was -3.46. With G10C C20A A29C G58U G60A C85U the “polymerase ribozyme fitness (log ratio)” value was -6.83. With G10C G117A the “polymerase ribozyme fitness (log ratio)” value was -1.75. For G10C C70U, the “polymerase ribozyme fitness (log ratio)” value was -1.63. With G10C C11U A84U A108G the “polymerase ribozyme fitness (log ratio)” value was -2.5. With G10C G61U C114U the “polymerase ribozyme fitness (log ratio)” value was -1.8. For G10A C94A C97U U106A, the “polymerase ribozyme fitness (log ratio)” value was -0.642. For G10C G57A C88U U112G, the “polymerase ribozyme fitness (log ratio)” value was -3.48. With G10A G17C C56U the “polymerase ribozyme fitness (log ratio)” value was -2.35. In the case of G10A U21A A27G C53A, the “polymerase ribozyme fitness (log ratio)” value is reported as -0.87. For G10A U81A G110A U129A, the “polymerase ribozyme fitness (log ratio)” value was -5.01. For G10C A18U C73G G113C, the “polymerase ribozyme fitness (log ratio)” value was -5.21. For G10A U30A U54A, the “polymerase ribozyme fitness (log ratio)” value was -5.83. For G10C C11G C20U A43U C72U, the “polymerase ribozyme fitness (log ratio)” value was -2.23. In the case of G10A C97G, the “polymerase ribozyme fitness (log ratio)” value is reported as -3.95. With G10C A16U C115A the “polymerase ribozyme fitness (log ratio)” value was -2.52. For G10C G48A C64U G117U U125G, the “polymerase ribozyme fitness (log ratio)” value was -6.03. In the case of G10A G61A A111G, the “polymerase ribozyme fitness (log ratio)” value is reported as 0.12. For G10A G117C, the “polymerase ribozyme fitness (log ratio)” value was -4.43. For G10A U54G G71C C102U A111U U129G, the “polymerase ribozyme fitness (log ratio)” value was -5.93. In the case of G10A G122A, the “polymerase ribozyme fitness (log ratio)” value is reported as 0.549. For G10C A75U C98A U109A G127C, the “polymerase ribozyme fitness (log ratio)” value was -5.13. For G10C U54C G93C C102A, the “polymerase ribozyme fitness (log ratio)” value was -5.34. With G10A U131A the “polymerase ribozyme fitness (log ratio)” value was -0.339. With G10C C34A C124A the “polymerase ribozyme fitness (log ratio)” value was -3.03. With G10C A27G A43U G110U the “polymerase ribozyme fitness (log ratio)” value was -5.07. For G10A G42U G110A, the “polymerase ribozyme fitness (log ratio)” value was -4. With G10C U38G C85U G122A C123G the “polymerase ribozyme fitness (log ratio)” value was 0.725. With G10C C34U A43U C101G G107C the “polymerase ribozyme fitness (log ratio)” value was -7.66. For G10A G61C A83U, the “polymerase ribozyme fitness (log ratio)” value was -2.03. For G10A G35U C56G C88A G120C U133A, the “polymerase ribozyme fitness (log ratio)” value was -4.15. With G10C C85A the “polymerase ribozyme fitness (log ratio)” value was -0.827. With G10C A18U C88A C97U U106C the “polymerase ribozyme fitness (log ratio)” value was -5.16. For G10C A24U C53A G63C G117C G128A, the “polymerase ribozyme fitness (log ratio)” value was -5.7. In the case of G10C G36U A50C U78G C86A, the “polymerase ribozyme fitness (log ratio)” value is reported as -4.45. With G10A G58C the “polymerase ribozyme fitness (log ratio)” value was 0.631. For G10C C49G U81C G120C, the “polymerase ribozyme fitness (log ratio)” value was -4.69. With G10C A18C C62U U133A the “polymerase ribozyme fitness (log ratio)” value was -3.86. In the case of G10C C13G G35A G61A C114U, the “polymerase ribozyme fitness (log ratio)” value is reported as -5.47. In the case of G10C G39A C76U A84U U87A, the “polymerase ribozyme fitness (log ratio)” value is reported as -2.28. With G10C C11G U21A the “polymerase ribozyme fitness (log ratio)” value was 0.0374. With G10C A26G C62G the “polymerase ribozyme fitness (log ratio)” value was -4.17. For G10C A68G, the “polymerase ribozyme fitness (log ratio)” value was -4.75. For G10C C80A U130G, the “polymerase ribozyme fitness (log ratio)” value was -3.78. In the case of G10C G39C C49G A111U, the “polymerase ribozyme fitness (log ratio)” value is reported as -4.94. In the case of G10A G36A C56A A105U U112A, the “polymerase ribozyme fitness (log ratio)” value is reported as -3.87. With G10C C40G C56G G61A A68U G77U U112C the “polymerase ribozyme fitness (log ratio)” value was -6.74. With G10C G52U G60A C89A the “polymerase ribozyme fitness (log ratio)” value was -4.24. With G10A G42U C72A C76G C115A the “polymerase ribozyme fitness (log ratio)” value was -3.07. For G10C G57C, the “polymerase ribozyme fitness (log ratio)” value was -0.669. For G10C C40G, the “polymerase ribozyme fitness (log ratio)” value was -1.34. In the case of G10C A50C G69U G110A G113C, the “polymerase ribozyme fitness (log ratio)” value is reported as -6.42. In the case of G10A G58C C123A, the “polymerase ribozyme fitness (log ratio)” value is reported as 1.18. With G10A G71U U87C the “polymerase ribozyme fitness (log ratio)” value was -0.267. For G10C C12A A83C C124G, the “polymerase ribozyme fitness (log ratio)” value was 1.04. With G10C C49G G61A U81C G120C the “polymerase ribozyme fitness (log ratio)” value was -4.13. For G10A G120U, the “polymerase ribozyme fitness (log ratio)” value was 1.07. For G10C C73G C80U, the “polymerase ribozyme fitness (log ratio)” value was -3.34. In the case of G10A G57U C72A C79A U96A, the “polymerase ribozyme fitness (log ratio)” value is reported as -2.33. For G10C G63A C80U, the “polymerase ribozyme fitness (log ratio)” value was -3.07. For G10C A37C, the “polymerase ribozyme fitness (log ratio)” value was -1.41. In the case of G10C G71U, the “polymerase ribozyme fitness (log ratio)” value is reported as -1.91. For G10A G69U U78C A95G C115U, the “polymerase ribozyme fitness (log ratio)” value was 0.452. In the case of G10C A37U A84G C85A C94U C101G, the “polymerase ribozyme fitness (log ratio)” value is reported as -4.54. In the case of G10A U59A C62A C89G, the “polymerase ribozyme fitness (log ratio)” value is reported as -5.2. With G10C A16C C53U G117U the “polymerase ribozyme fitness (log ratio)” value was -4.5. In the case of G10A G48U G52A G77U, the “polymerase ribozyme fitness (log ratio)” value is reported as -2.41. In the case of G10C C40G A66U, the “polymerase ribozyme fitness (log ratio)” value is reported as -2.18. With G10A G61A A91C C123U the “polymerase ribozyme fitness (log ratio)” value was 0.979. For G10A G44A A46U G48C, the “polymerase ribozyme fitness (log ratio)” value was -1.66.
